Experimental data from paper PMC10952462, “Commentary on “The road to reliable peptide assays is paved with good guidelines”” (Clinical Endocrinology, 2023).

Legend:
[1] = collection tubes containing EDTA; ref 3 (Toräng et al.); cited from earlier work
Excerpt: (§1) Maurer et al. have quoted Toräng et al.'s study on PYY's major cleaving sites but disregarded the outcome from their study of the inhibitory effects of EDTA on metalloendoproteases, neuroendopeptidase (NEP) and Meprin β.[3] […] We have studied the stability of both PYY species with our inhibitor mix containing DPP4 inhibitor and Aprotinin, where we spiked PYY1 –36 and PYY3 –36 into plasma EDTA and LH from three different volunteers.

[2] = Stability of PYY1-36 and PYY3-36 in EDTA and lithium heparin plasma (LC-MS/MS assay validation); format: in vitro ADME, human; conditions: for degradation in plasma at 4°C / degradation in plasma at room temperature / mean percentage difference in concentration, overall and between all tested sample sets: EDTA or LH plasma; for degradation in plasma at 4°C: 3 h time-point at 4°C; for degradation in plasma at 4°C / degradation in plasma at room temperature: with or without inhibitors (DPP4 inhibitor and Aprotinin), spiked samples and healthy volunteer samples, triplicate QCs (low and high); for degradation in plasma at room temperature: 3 h time-point at room temperature (19°C); for mean percentage difference in concentration, overall and between all tested sample sets: presence versus absence of inhibitors, 3 h at 19°C or 4°C, mean of injections of triplicate QCs (low and high); for differences in concentrations with only DPP4 inhibitor and Aprotinin present: spiked into plasma EDTA and LH from three different volunteers, inhibitor mix of DPP4 inhibitor and Aprotinin
Experimental: We have verified stability of PYY1 –36 and PYY3 –36 at preanalytical, analytical and post‐analytical stages of the assay. At preanalytical stage the whole blood is collected in prechilled lithium heparin (LH) or ethylenediaminetetraacetic acid (EDTA) tubes and containing evaluated in‐house inhibitors (DPP4 inhibitor and Aprotinin). The sample is centrifuged immediately at 4°C and flash‐frozen on dry ice or transferred immediately to a −80°C freezer. The samples are kept at −80°C until being thawed once only for analysis.
We deemed our protease inhibitors sufficient for maintaining stability of PYY1 –36 and PYY3 –36 and inhibiting peptide degradation.
as §1
Furthermore, we have verified the stability of both species of PYY in both EDTA and LH plasma under the following conditions: (1) freezing and thawing up to a second cycle; (2) incubation at 4°C for up to 4 h; (3) long‐term storage (6 months) at −80°C; (4) postextraction, during storage in the autosampler at 4°C. We have verified the stability of our stock and working stock solutions for up to 7 months, stored at […]. We would state that it is a matter of standard operating procedure that we store these solutions at −80°C and discard these at the end of the day of the run after thawing, affording a safety margin. Last, our assay has been validated both with plasma‐based calibrants and QCs, and cross‐validated in a surrogate matrix (20BMA). We also validated matrix effects (ME) in spiked plasma EDTA and plasma LH. Mean percentage ME for PYY1 –36 was 100.7% and for PYY3 –36, 111% in plasma LH. EDTA ME results were reported previously.[2]

| Substance | risk of PYY degradation in collected blood [1] | degradation in plasma at 4°C [2] | degradation in plasma at room temperature [2] | mean percentage difference in concentration, overall and between all tested sample sets [2] | differences in concentrations with only DPP4 inhibitor and Aprotinin present [2] |
| --- | --- | --- | --- | --- | --- |
| PYY: peptide YY, species not specified, as studied by Toräng et al. | small |  |  |  |  |
| peptide YY1 –36 [PYY1 –36] |  | no degradation | no degradation | ≤ 10% | did not detect any significant differences |
| peptide YY3‐36 [PYY3 –36] |  | no degradation | no degradation | ≤ 10% | did not detect any significant differences |
